As usually defined, the Kd is the concentration at which binding is half-saturated. A lower Kd goes with a tighter complex.

Results on 2 molecules are retold here after publication PMC3258144.

This data set concerns the target Dnmt3a-C WT (mouse, UniProt O88508 608-908). Put plainly: fluorescence anisotropy. Background: Polarisation of emitted light reports the rotation of a fluorescent probe.

Chain of Dnmt3a-C WT (O88508 608-908): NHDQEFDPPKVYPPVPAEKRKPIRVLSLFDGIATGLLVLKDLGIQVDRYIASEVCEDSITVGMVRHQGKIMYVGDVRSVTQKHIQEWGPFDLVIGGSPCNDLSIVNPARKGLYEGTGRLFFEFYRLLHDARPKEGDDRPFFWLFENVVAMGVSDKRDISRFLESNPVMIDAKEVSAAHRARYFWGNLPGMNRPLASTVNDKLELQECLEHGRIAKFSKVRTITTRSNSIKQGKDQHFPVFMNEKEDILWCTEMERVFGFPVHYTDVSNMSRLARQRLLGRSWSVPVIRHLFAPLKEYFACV

B1: Non-CG-Cy5 29-mer (dsDNA)
DNA 1: ACTTGCAACAGTCCTAACATTCACCTCTT
DNA 2: AAGAGGTGAATGTTAGGACTGTTGCAAGT
As to B1, binding was characterised by a dissociation constant (Kd) of 130 ± 12 nM.

B2: 2CG-Cy5 29-mer (dsDNA)
DNA 1: ACTTGCAACGGTCCTAACCGTCACCTCTT
DNA 2: AAGAGGTGACGGTTAGGACCGTTGCAAGT
For the molecule B2, binding was characterised by a dissociation constant (Kd) of 190 ± 10 nM.
